# Test results as given in patent publication US11667697.
# Legend:
# [1] = target: CPXV ortholog of D8 (cowpox virus); test: lysate ELISA
# [2] = target: CPXV ortholog of D8 (cowpox virus); test: cell-based or functional assay
# [3] = target: MPXV ortholog of D8 (monkeypox virus); test: lysate ELISA
Binder,EC50 [1],"PRNT Emax, CPXV MV+C' [2]","PRNT IC50, CPXV MV+C' [2]",EC50 [3]
"VACV-128 (antibody, V domains shown) VH: EVQLVQSGAEVKKPGATVKISCKVSGYTFTDYYMHWVQQAPGKGLKWMGLLDPLDGETIYSEKFQGKVTITADTSTDTAYMELSSLRSEDTAVYYCARELTGYLNYWGQGTLVTVSS VL: DIQMTQSPSSLSASVGDRVTITCRASPGICNYLAWYQHKPGKVPKLLIYAASTLQSGVPSRFTGVGSGTNFTLTINNLPPENVATYYCQKYNSAPHTFGQGTKVDIK",0.25 µg/mL,71%,0.3 µg/mL,
"VACV-136 (antibody, V domains shown) V domain 1: QVTLKESGPVLVNPTETLTLTCTVSGFSLSNARMRVSWIRQPPGKALEWLAHIFSNDEKSYSTSLKSRLTISKDTSKSQVVLTMTNMDPVDTASYYCARMRGEYNSYYFDSWGQGTLVTVS V domain 2: SYELTQPPSVSVSPGQTARITCSGDALPNQYAYWYQQKPGQAPVLVIYKDSERPSGIPERFSGSSSGTTVTLTISGVQAEDEADYYCQSADSSGTSVVFGGGTQVTV",0.05 µg/mL,75%,0.2 µg/mL,0.04 µg/mL
"VACV-8 (antibody, V domains shown) VH: QVQLQQWGAGLLKPSETLSLTCAGYGGSFSGYFWSWIRQPPGKGLEWIGEINHSGSTDYNPSLKSRVTISLDTSKTQFSLKLSSVTAADTAVYYCARVMTGITNYYYYYGMDVWGQGTTVTF VL: DIQLTQSPSFLSASVGDRVTITCRASQDISSYLAWYQQKPGKAPKLLIYAASTLQSGVPSRFSGSESGTEFTLTISSLQPENFATYYCQHLNSYPRGYTFGQGTKVDIK",0.1 µg/mL,58%,2 µg/mL,0.06 µg/mL
"VACV-66 (antibody, V domains shown) VH: QLQLQESGPGLVKPSETLSLTCTVSGDSISSNNYYWGWIRQPPGKGLEWIGSIYYSGSTYYNPSLKSRVTISVDTSKNQFSLKLSSVTAADTAVYYCARHRRVLLWFGEFQLWGQGTLVTVSS VL: QSALTQPPSVSGAPGQRVTISCTGSSSNIGAGYDVHWYQQLPGTAPKLLIYGNINRPSGVPDRFSGSKSGTSASLAITGLQAEDEADYYCQSYDSSLSGALFGGGTQLTVL",,,,> 0.3 µg/mL
"VACV-117 (antibody, V domains shown) VH: QVQLVQSGAEVKKPGASVKVSCKASGYTFTSYDINWVRQATGQGLEWLGWMNPNSGNTKSAQKVKGRVTMTRDTSISTAYMELSSLRSEDTAVYYCARTPFDDIGYYYWGQGTLVTVS VL: DIVMTQSPLSLSVTPGEPASISCRSSQSLLHSNGYNYLDWYLQKPGQSPQLLIYLGSNRASGVPDRFIGSGSGTDFTLKISIVEAEDVGVYYCMQALQTPGAFGPGTKVDIK",0.01 µg/mL,,,> 26 µg/mL
"VACV-159 (antibody, V domains shown) VH: QLQLQESGPGLVKPSETLSLTCTVSGGSISSSSYYWGWIRQPPGKGLEWIGSIYYRGSTYYNPSLKSRITISVDTSKNQFSLKLRSVTAADTAVYYCARHLRVLLWFGELLEWGQGTTVTVSS VL: QSALTQPPSVSGAPGQRVTISCTGSSSNIGADYDVHWYQQLPGTAPKLLIYGNSNRPSGVPDRFSGSKSGTSASLAITGLQAEDEADYYCQSHDSSLSGYVFGTGTKVTVL",> 28 µg/mL,,,> 14 µg/mL
"MPXV-61 (antibody, V domains shown) V domain 1: QVQLVQSGAEVKKPGSSVKVSCKASGETFSRYAFSWVRLAPGQGLEWLGRIIPFIDIPNYAQKFQGRVTITADKSTSTAYMELSSLRSEDTAVYYCASSLPSTYYFGSGNYPWGNWLDPWGQGTLVTVSS V domain 2: QSVVTQPPSVSAAPGQNVTISCSGSSSNIGNNYVSWYHQLPGTAPKLLIYDNDKRPSGIPDRFSGSKSGTSATLGITGLQTGDEADYYCGTWDSSLSEVVFGGGTQVTVL",0.009 µg/mL,,,0.004 µg/mL
"MPXV-96 (antibody, V domains shown) VH: QVQLQQWGAGLLISSETLSLTCGVYGGSFSGYYWTWIRQPPGKGLEWIGEINYVGSTNYNPSLKSRVTMSVDTSKNHFSLSLSSVTAADTAVYYCARGLRGNSVCFDWGPGTLV VL: ELVMTQSPATLSVSPGERASLSCRASQSVSSNLAWYQQKPGQAPRLLIYGASTRATGLPARFSGSGSGTEFTLTISSLQSEDFAIYYCQQYNNWPRTFGQGTKVDI",0.003 µg/mL,,,0.001 µg/mL
